Results as given in patent publication US20260176378A1 (DYAX, published 2026).

molecular target: T1, human plasma kallikrein (human, UniProt P03952 20-390; P03952 391-638); assay: ELISA, biotinylated pKal signal over streptavidin background
T1 construct: two disulfide-linked chains; NP_000883.2; also called pKal; hpKal
T1 sequence (P03952 20-390 limits assumed, chain 1 of 2): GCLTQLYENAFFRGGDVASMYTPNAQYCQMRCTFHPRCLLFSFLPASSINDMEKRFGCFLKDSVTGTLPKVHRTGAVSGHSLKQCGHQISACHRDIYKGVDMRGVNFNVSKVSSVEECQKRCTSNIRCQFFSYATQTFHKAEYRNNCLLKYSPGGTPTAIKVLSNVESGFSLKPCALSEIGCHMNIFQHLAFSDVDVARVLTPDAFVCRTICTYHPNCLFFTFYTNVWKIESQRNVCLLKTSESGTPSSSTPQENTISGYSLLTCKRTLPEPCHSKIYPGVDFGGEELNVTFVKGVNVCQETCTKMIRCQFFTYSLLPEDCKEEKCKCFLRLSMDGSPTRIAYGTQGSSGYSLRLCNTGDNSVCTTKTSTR
T1 sequence (P03952 391-638 limits assumed, chain 2 of 2): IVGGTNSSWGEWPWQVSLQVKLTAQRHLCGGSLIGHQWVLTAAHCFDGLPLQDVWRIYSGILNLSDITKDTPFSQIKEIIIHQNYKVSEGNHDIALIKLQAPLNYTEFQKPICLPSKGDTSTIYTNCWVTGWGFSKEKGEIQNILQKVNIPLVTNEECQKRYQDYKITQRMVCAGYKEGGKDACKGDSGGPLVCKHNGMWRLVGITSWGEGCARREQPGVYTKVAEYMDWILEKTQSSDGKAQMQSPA

Binder | ELISA (T/B)
M145-D01 (Fab, V domains shown) VH: EVQLLESGGGLVQPGGSLRLSCAASGFTFSYYHMSWVRQAPGKGLEWVSVISPSGGSTKYADSVKGRFTISRDNSKNTLYLQMNSLRAEDTAVYYCARGGSSDYAWGSYRRPYYFDYWGQGTLVTVSS VL: DIQMTQSPATLSLSPGERATLSCRASQSVSSYLAWYQQKPGQAPRLLIYDASNRATGIPARFSGSGSGTDFTLTISSLEPEDFAVYYCQQRSNWPRGFTFGPGTKVDIK | 6.2
M8-A09 (Fab, V domains shown) VH: EVQLLESGGGLVQPGGSLRLSCAASGFTFSTYFMLWVRQAPGKGLEWVSSIYPSGGNTVYADSVKGRFTISRDNSKNTLYLQMNSLRAEDTAVYYCARAASPVRNYYYYGMDVWGQGTTVTVSS VL: QCELTQPPSESVSPGQTANITCSGDKLGNKYAYWYQQKPGQSPVLVIYQDNNRPSGIPERFSGSNSGNTATLTISGTQAIDEANYYCQAWDSRTVVFGGGTKLTVL | 5.4
M146-E12 (Fab, V domains shown, claim 26 (viii) gives VL 265 and VH 266 instead) VH: EVQLLESGGGLVQPGGSLRLSCAASGFTFSRYIMHWVRQAPGKGLEWVSSISPSGGLTSYADSVKGRFTISRDNSKNTLYLQMNSLRAEDTAVYYCAREFENAYHYYYYGMDVWGQGTTVTVSS VL: DIQMTQSPSSLSASVGDRVTITCRASGDIGNALGWYQQKPGKAPRLLISDASTLQSGVPLRFSGSGSGTEFTLTISSLQPEDFATYYCLQGYNYPRTFGQGTKLEIR | 49.6
M10-F10 (Fab, V domains shown) VH: EVQLLESGGGLVQPGGSLRLSCAASGFTFSFYNMNWVRQAPGKGLEWVSSISPSGGETNYADSVKGRFTISRDNSKNTLYLQMNSLRAEDTAVYYCARGGGAYRNNWWGGFDIWGLGTMVTVSS VL: DIQMTQSPSSLSASVGDRVTITCRASQSISVYLNWYQHKPGKAPKLLIYGASNLQFGVPSRFSGSGYGTDFTLTISSLQPEDFATYHCQQTFSLFTFGGGTKVEIK | 39.2
M162-A04 (antibody, V domains shown, phage-derived Fab; also called R84-H05; M162-A4) VH: EVQLLESGGGLVQPGGSLRLSCAASGFTFSHYIMMWVRQAPGKGLEWVSGIYSSGGITVYADSVKGRFTISRDNSKNTLYLQMNSLRAEDTAVYYCAYRRTGIPRRDAFDIWGQGTMVTVSS VL: DIQMTQSPSTLSASVGDRVTITCRASQSISSWLAWYQQKPGKAPNLLIYKASTLESGVPSRFSGSGSGTEFTLTISSLQPDDFATYYCQQYNTYWTFGQGTKVEIK | 11.4
M7-E07 (Fab, V domains shown) VH: EVQLLESGGGLVQPGGSLRLSCAASGFTFSWYLMIWVRQAPGKGLEWVSYIYPSGGFTYYADSVKGRFTISRDNSKNTLYLQMNSLRAEDMAVYYCARTEGPLSWGYGMDVWGQGTTVTVSS VL: not shown | 45.7
M152-A12 (Fab, V domains shown) VH: EVQLLESGGGLVQPGGSLRLSCAASGFTFSPYFMGWVRQAPGKGLEWVSGIGPSGGSTTYADSVKGRFTISRDNSKNTLYLQMNSLRAEDTAVYYCAREGPPYSSGWYRGLRQYHFDYWGQGTLVTVSS VL: DIQMTQSPSSLSASVGDRVTITCRASQSISSYLSWYQQRPGKAPNLLIYAASSLQSGVPSRFSGSGSGTDFTLTISSLQPEDFATYYCQQSISIPRTFGQGTKVEVK | 19
M142-H08 (antibody, V domains shown, tested as Fab (Ki,app) and as human IgG (SPR); the IgG is cleaved in HC CDR3 after WFR) VH: EVQLLESGGGLVQPGGSLRLSCAASGFTFSAYSMIWVRQAPGKGLEWVSYIRPSGGRTTYADSVKGRFTISRDNSKNTLYLQMNSLRAEDTAVYYCARGGLLLWFRELKSNYFDYWGQGTLVTVSS VL: DIQMTQSPSSLSAFVGDRVTITCRASQPIDNYLNWYHQKPGKAPKLLIYAASRLQSGVPSRLSGSGFGTDFTLTISSLQPEDFGNYYCQQSYTVPYTFGGGTKVEIR | 29.9
M145-D11 (Fab, V domains shown, also called 559A-M145-D11 (sFab); 559A-M0145-D11) VH: EVQLLESGGGLVQPGGSLRLSCAASGFTFSHYRMSWVRQAPGKGLEWVSSIYPSGGRTVYADSVKGRFTISRDNSKNTLYLQMNSLRAEDTAVYYCAKDKFEWRLLFRGIGNDAFDIWGQGTMVTVSS VL: QSVLTQPPSVSVSPGQTASITCSGDKLGDKYTSWYQQRPGQSPVLVIYQDIKRPSGIPERFSGSNSGNTATLTISGTQAMDEADYYCQAWDSPNARVFGSGTKVTVL | 40
M6-D09 (Fab, V domains shown, also called M06-D09; 559A-M06-D09) VH: EVQLLESGGGLVQPGGSLRLSCAASGFTFSFYYMVWVRQAPGKGLEWVSVIYPSGGITVYADSVKGRFTISRDNSKNTLYLQMNSLRAEDTAVYYCARDKWAVMPPYYYYAMDVWGQGTTVTVSS VL: DIQMTQSPSSLSASVGDRVTITCRASQSIRNYLNWYQQKPGKAPNLLIYAASTLQSGVPARFSGSGSGTDFTLTISSLQPEDFATYYCQQLSGYPHTFGQGTKLEIK | 39.9
M160-G12 (antibody, V domains shown, phage-derived Fab; also called R84-D02) VH: EVQLLESGGGLVQPGGSLRLSCAASGFTFSHYLMTWVRQAPGKGLEWVSYISPSGGHTIYADSVKGRFTISRDNSKNTLYLQMNSLRAEDTAVYYCARVARGIAARSRTSYFDYWGQGTLVTVSS VL: DIQMTQSPSFLSASVGDRVTITCRASQGISSYLAWYQQKPGKAPKLLIYAASTLQSGVPSRFSGSGSGTEFTLTISSLQPEDFATYYCQQLNSYPLTFGGGTKVEIK | 38.3
M161-C11 (Fab, V domains shown) VH: EVQLLESGGGLVQPGGSLRLSCAASGFTFSDYAMKWVRQAPGKGLEWVSSISSSGGVTQYADSVKGRFTISRDNSKNTLYLQMNSLRAEDTAVYYCAREEDYSSSWYSRRFDYYYGMDVWGQGTTVTVSS VL: QSALTQPPSVSVSPGQTASITCSGDKLGDKYVSWYQQRPGQSPVLVIYQDTKRPSGIPERFSGSNSGNTATLTISGTQAVDEADYYCQAWDSSTYVFGGGTKVTVL | 41.8

molecular target: T2, pKal catalytic domain Mutant 2 (human, UniProt P03952 391-638); assay: equilibrium Ki,app
T2 construct: Pichia pastoris; construct limits derived as for the wild type domain; not shown: His tag fusion
Description: Enzyme and inhibitor were pre-incubated for 2 hours at 30° C. in a 96-well plate by adding 10 μL of a 10× enzyme solution and 10 μL of 10× inhibitor solutions to 70 μL of reaction buffer. Reactions were initiated by the addition of 10 μL of a 10× concentrated stock of substrate, and were monitored at 30° C. in a fluorescence plate reader with the excitation and emission wavelengths set at 360 nm/460 nm, respectively. Kinetic data were acquired by the increase in fluorescence, and initial rates for each condition were plotted against the total inhibitor concentration. The data was fit to the following equation for tight binding inhibitors: […]

T2 sequence (P03952 other isoform, or with tags, fused parts or gaps mutant): as the sequence (P03952 391-638 limits assumed, chain 2 of 2) above, with R161A, Q163A, Y165A, T168A, R170A counted along it

Binder | fold change of Ki,app against the wild type catalytic domain
M6-D09 (Fab, V domains shown, also called M06-D09; 559A-M06-D09) VH: EVQLLESGGGLVQPGGSLRLSCAASGFTFSFYYMVWVRQAPGKGLEWVSVIYPSGGITVYADSVKGRFTISRDNSKNTLYLQMNSLRAEDTAVYYCARDKWAVMPPYYYYAMDVWGQGTTVTVSS VL: DIQMTQSPSSLSASVGDRVTITCRASQSIRNYLNWYQQKPGKAPNLLIYAASTLQSGVPARFSGSGSGTDFTLTISSLQPEDFATYYCQQLSGYPHTFGQGTKLEIK | ~5 fold
